B1: FLAG-tagged KIR2DL2, full-length, wild type, on 293T cells [human] / HLA-C*03:04-GL9 tetramer (phycoerythrin-conjugated) [modified: biotin (enzymatically, with biotin ligase)] [human] (parent complex)
chain 1: HEGVHRKPSLLAHPGRLVKSEETVILQCWSDVRFEHFLLHREGKFKDTLHLIGEHHDGVSKANFSIGPMMQDLAGTYRCYGSVTHSPYQLSAPSDPLDIVITGLYEKPSLSAQPGPTVLAGESVTLSCSSRSSYDMYHLSREGEAHECRFSAGPKVNGTFQADFPLGPATHGGTYRCFGSFRDSPYEWSNSSDPLLVSVIGNPSNSWPSPTEPSSKTGNPRHLHILIGTSVVIILFILLFFLLHRWCSNKKNAAVMDQESAGNRTANSEDSDEQDPQEVTYTQLNHCVFTQRKITRPSQRPKTPPTDIIVYAELPNAESRSKVVSCP
chain 2: not shown
chain 3: not shown
chain 4: GAVDPLLAL
B2: FLAG-tagged KIR2DL3, full-length, wild type, on 293T cells [human] / HLA-C*03:04-GL9 tetramer (phycoerythrin-conjugated) [modified: biotin (enzymatically, with biotin ligase)] [human] (parent complex)
chain 1: HEGVHRKPSLLAHPGPLVKSEETVILQCWSDVRFQHFLLHREGKFKDTLHLIGEHHDGVSKANFSIGPMMQDLAGTYRCYGSVTHSPYQLSAPSDPLDIVITGLYEKPSLSAQPGPTVLAGESVTLSCSSRSSYDMYHLSREGEAHERRFSAGPKVNGTFQADFPLGPATHGGTYRCFGSFRDSPYEWSNSSDPLLVSVTGNPSNSWPSPTEPSSETGNPRHLHVLIGTSVVIILFILLLFFLLHRWCCNKKNAVVMDQEPAGNRTVNREDSDEQDPQEVTYAQLNHCVFTQRKITRPSQRPKTPPTDIIVYTELPNAEP
chain 2: not shown
chain 3: not shown
chain 4: GAVDPLLAL
B3: FLAG-tagged KIR2DL2, full-length, wild type, on 293T cells [human] / HLA-C*07:02-RL9 tetramer (phycoerythrin-conjugated) [modified: biotin (enzymatically, with biotin ligase)] [human | not stated] (parent complex)
chain 1: B1 chain 1
chain 2: not shown
chain 3: not shown
chain 4: RYRPGTVAL
B4: FLAG-tagged KIR2DL3, full-length, wild type, on 293T cells [human] / HLA-C*07:02-RL9 tetramer (phycoerythrin-conjugated) [modified: biotin (enzymatically, with biotin ligase)] [human | not stated] (parent complex)
chain 1: B2 chain 1
chain 2: not shown
chain 3: not shown
chain 4: RYRPGTVAL

The text below walks through data of publication PMC8041999 (2021).

Variants of B1 are the subject of the first assay. Nature of the assay: flow cytometry, HLA tetramer staining of transfected 293T cells; percentage tetramer+ normalised to percentage FLAG+; read off a plot.
Take chain 1 S132A: the ratio to parent was around 1.
Turning to chain 1 D135A, the ratio to parent was around 0.03.
With chain 1 D183A, the ratio to parent is around 0.02.
The same measure, in the same setting: the figure for chain 1 L104A is around 0.02; for chain 1 F45A it is around 0.03.
The same measure, in the same setting: with chain 1 Y105A the figure was around 0.01.
Same read-out and setting: the figure for chain 1 S133A is around 0.17; for chain 1 E21A it is around 0.88.
As for chain 1 D72A, the ratio to parent was around 1.1.
Same read-out and setting: the figure for chain 1 E106A is around 0.93; for chain 1 K44A it is around 0.95.
On to chain 1 M70A, for which the ratio to parent was around 1.

The variants in the next assay derive from B2. The description is as above.
In the case of chain 1 E106A, the ratio to parent is around 0.82.
chain 1 Y105A: the ratio to parent was around 0.02.
Consider chain 1 F45A, for which the ratio to parent is around 0.04.
Same read-out and setting: the figure for chain 1 L104A is around 0.05; for chain 1 S133A it is around 0.57; for chain 1 D183A it is around 0.05.
On the same count and under the same terms, the figure for chain 1 D72A is around 1; for chain 1 K44A it is around 0.6.
On the same count and under the same terms, the figure for chain 1 D135A is around 0.1; for chain 1 S132A it is around 1.2.
On to chain 1 E21A, for which the ratio to parent is around 0.92.
chain 1 M70A: the ratio to parent was around 1.1.

Variants of B3 are the subject of the next assay. The assay is described as above.
In the case of chain 1 D183A, the ratio to parent is around 0.67.
Regarding chain 1 Y105A, the ratio to parent was around 0.01.
Same read-out and setting: the figure for chain 1 S132A is around 1.
Consider chain 1 M70A, for which the ratio to parent was around 0.92.
Still for that read-out and setting: the figure for chain 1 F45A is around 1.1; for chain 1 D72A it is around 1.3.
The same measure, in the same setting: with chain 1 E21A the figure was around 1; with chain 1 S133A, around 1.2.
With chain 1 K44A, the ratio to parent was around 1.1.
The same measure, in the same setting: with chain 1 E106A the figure was around 1.2.
For the variant chain 1 D135A, the ratio to parent is around 1.2.
On to chain 1 L104A, for which the ratio to parent is around 0.67.

A further assay covers variants of B4. The assay is described as above.
chain 1 F45A: the ratio to parent is around 0.72.
Same read-out and setting: with chain 1 K44A the figure was around 0.9; with chain 1 E21A, around 0.97; with chain 1 E106A, around 0.85.
Same read-out and setting: the figure for chain 1 M70A is around 1.3; for chain 1 D183A it is around 0.33; for chain 1 S132A it is around 1.1.
The same measure, in the same setting: the figure for chain 1 L104A is around 0.4; for chain 1 Y105A it is around 0.02; for chain 1 D135A it is around 0.57.
With chain 1 D72A, the ratio to parent was around 1.1.
With chain 1 S133A, the ratio to parent is around 1.2.
